T1: Activin A (human, UniProt P08476 311-426)
T1 sequence: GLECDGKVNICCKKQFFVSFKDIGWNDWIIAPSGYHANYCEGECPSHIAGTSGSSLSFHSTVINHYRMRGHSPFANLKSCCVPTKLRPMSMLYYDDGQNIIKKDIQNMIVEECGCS

T2: Activin AB (human, UniProt P08476 311-426; P09529 293-407)
T2 chain 1: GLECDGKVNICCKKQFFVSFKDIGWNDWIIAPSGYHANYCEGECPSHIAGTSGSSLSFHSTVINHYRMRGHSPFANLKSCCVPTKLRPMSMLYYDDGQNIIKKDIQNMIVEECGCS
T2 chain 2: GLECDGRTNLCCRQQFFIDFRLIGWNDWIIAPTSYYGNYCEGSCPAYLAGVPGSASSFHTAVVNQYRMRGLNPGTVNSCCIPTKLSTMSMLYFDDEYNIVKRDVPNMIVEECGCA

T3: Activin AC (human, UniProt P55103 237-352)
T3 sequence 1: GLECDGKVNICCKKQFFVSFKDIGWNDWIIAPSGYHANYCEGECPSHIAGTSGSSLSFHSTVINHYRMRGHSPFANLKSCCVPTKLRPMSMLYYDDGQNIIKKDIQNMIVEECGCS
T3 sequence 2: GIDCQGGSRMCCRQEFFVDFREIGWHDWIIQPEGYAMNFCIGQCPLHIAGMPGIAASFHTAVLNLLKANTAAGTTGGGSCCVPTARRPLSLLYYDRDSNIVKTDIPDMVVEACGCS


Columns and labels:
Activin A [1] = target: T1, Activin A; experiment: cell-based or functional assay
Activin AB = target: T2, Activin AB; experiment: cell-based or functional assay
Activin AC = target: T3, Activin AC; experiment: cell-based or functional assay
Activin A [2] = target: T1, Activin A; experiment: SPR, 5 nM Activin A + 15 nM binder over hActRIIA-hFc surface
Experimental: (§1) The binding signal (RU) was measured at 150 seconds after the start of the injection, and this signal was subtracted by the measured RU value for a negative control reference surface to determine the specific binding signal.

Activin A [3] = target: T1, Activin A; experiment: SPR, 5 nM Activin A + 30 nM binder over hActRIIA-hFc surface
Experimental: as §1

Activin A [4] = target: T1, Activin A; experiment: SPR, 5 nM Activin A + 60 nM binder over hActRIIA-hFc surface
Experimental: as §1

Activin A [5] = target: T1, Activin A; experiment: SPR, 5 nM Activin A + 0.94 nM binder over hActRIIA-hFc surface
Experimental: as §1

Activin A [6] = target: T1, Activin A; experiment: SPR, 5 nM Activin A + 1.88 nM binder over hActRIIA-hFc surface
Experimental: as §1

Activin A [7] = target: T1, Activin A; experiment: SPR, 5 nM Activin A + 3.75 nM binder over hActRIIA-hFc surface
Experimental: as §1

Activin A [8] = target: T1, Activin A; experiment: SPR, 5 nM Activin A + 7.50 nM binder over hActRIIA-hFc surface
Experimental: as §1

Activin A [9] = target: T1, Activin A; experiment: SPR, 5 nM Activin A + 15 nM binder over Follistatin-288 surface
Experimental: as §1

Activin A [10] = target: T1, Activin A; experiment: SPR, 5 nM Activin A + 30 nM binder over Follistatin-288 surface
Experimental: as §1

Activin A [11] = target: T1, Activin A; experiment: SPR, 5 nM Activin A + 60 nM binder over Follistatin-288 surface
Experimental: as §1

Activin A [12] = target: T1, Activin A; experiment: SPR, 5 nM Activin A + 7.5 nM binder over Follistatin-288 surface
Experimental: as §1

Activin A [13] = target: T1, Activin A; experiment: SPR, 5 nM Activin A + 0.94 nM binder over Follistatin-288 surface
Experimental: as §1

Activin A [14] = target: T1, Activin A; experiment: SPR, 5 nM Activin A + 1.88 nM binder over Follistatin-288 surface
Experimental: as §1

Activin A [15] = target: T1, Activin A; experiment: SPR, 5 nM Activin A + 3.75 nM binder over Follistatin-288 surface
Experimental: as §1

Activin A [16] = target: T1, Activin A; experiment: SPR, 5 nM Activin A + 0 nM binder (no inhibitor) over Follistatin-288 surface
Experimental: as §1

Activin A [17] = target: T1, Activin A; experiment: SPR, 5 nM Activin A + 0.00 nM binder (no inhibitor) over hActRIIA-hFc surface
Experimental: as §1

IC50, inhibition of 100 pM Activin A in A204/CAGAx12-Luc luciferase bioassay (Activin A [1]) [M]	IC50, inhibition of 30 pM Activin AB in A204/CAGAx12-Luc luciferase bioassay (Activin AB) [M]	IC50, inhibition of 4 nM Activin AC in A204/CAGAx12-Luc luciferase bioassay (Activin AC) [nM]	% bound RU w/ no inhibitor (Activin A [2]) [%]	% bound RU w/ no inhibitor (Activin A [3]) [%]	% bound RU w/ no inhibitor (Activin A [4]) [%]	% bound RU w/ no inhibitor (Activin A [5]) [%]	% bound RU w/ no inhibitor (Activin A [6]) [%]	% bound RU w/ no inhibitor (Activin A [7]) [%]	% bound RU w/ no inhibitor (Activin A [8]) [%]	% bound RU w/ no inhibitor (Activin A [9]) [%]	% bound RU w/ no inhibitor (Activin A [10]) [%]	% bound RU w/ no inhibitor (Activin A [11]) [%]	% bound RU w/ no inhibitor (Activin A [12]) [%]	% bound RU w/ no inhibitor (Activin A [13]) [%]	% bound RU w/ no inhibitor (Activin A [14]) [%]	% bound RU w/ no inhibitor (Activin A [15]) [%]	% bound RU w/ no inhibitor (Activin A [16]) [%]	% bound RU w/ no inhibitor (Activin A [17]) [%]	Binder
2.3e-10																			H4H10426P (antibody, human IgG4, V domains shown) VH: EVQLVESGGNLVQSGRSLRLSCTASGFAFDDFAMHWVRQVPGKGLEWVSGISWNSDTIGYADSVKGRFTISRDNAQNSLFLQMDSLRAEDTALYYCVKDMVRGLIGYYYYGMDVWGQGTTVTVSS VL: EIVLTQSPAILSLSPGERAILSCRASQSIYTYLSWYQQTPGRAPRLLIYETSSRATGIPARFIGSGSGTDFTLTISSLEPEDFAFYYCQHRSDWPPTFGQGTKLEIK
3.9e-11	2.3e-09	3.4																	H4H10468P2 (antibody, human IgG4, V domains shown) VH: QVQLQESGPGLVKPSETLSLTCTVSGGSFSSHFWSWIRQPPGKGLEWIGYIYYSGGTHYNPSLESRVTISVDTSKNQFSLKLNSVTAADTAVYYCARARSGITFGGLIVPGSFDIWGQGTMVTVSS VL: not shown
7.8e-11																			H4H10447P2 (antibody, human IgG4, V domains shown) VH: QVQLQESGPGLVKPSETLSLTCSVSGGSFSSHFWSWIRQPPGKGLEWIGYIHYSGGTNYNPSLKSRVTISVDTSKNQFSLKLTSVTAADTADYYCARAISGITFGGMIVPGSFDVWGEGTMVTVSS VL: not shown
4.6e-11																			H4H10448P2 (antibody, human IgG4, V domains shown) VH: QVQLQESGPGLVKPSETLSLTCTVSGGTFSSHFWSWIRQPPGKGLEWIGYIFYTGGTNHNPSLKSRVTISIDTSKNQFSLKLTSVTAADTAVYYCARARSGITFGGVIVPGSFDIWGQGTMVTVSS VL: not shown
5.6e-11	2.2e-09	6.5	113	117	118	114	114	95	105	3	3	3	3	73	46	6	100	100	H4H10442P2 (antibody, human IgG4, V domains shown) VH: QVQLQESGPGLVKPSETLSITCTVSGGSFSSHFWTWIRQPPGKGLEWIGYLHYSGGTSYNPSLKSRVIISVDTSKNQFSLKLNSVTAADTAVYYCARARSGITFGGLIVPGSFDIWGQGTMVTVSS VL: not shown
6.1e-11	1e-10	0.93	2	2	2	81	62	19	3	1	1	1	1	79	59	15	100	100	H4H10430P (antibody, human IgG4, V domains shown, also called mAb1) VH: EVQLVESGGGLVQPGRSLRLSCKASGFAFDDFAMHWVRQAPGKGLEWVSGIVWNSGDIGYADSVKGRFTISRDNAKNSLYLQLNSLRTEDTALYFCVKDMVRGLMGFNYYGMDVWGQGTTVTVSS VL: EIVLTQSPATLSLSPGERATLSCRASQTISTYLVWYRQRPGQAPSLLIYDASNRATDIPARFSGSGSGTDFTLTISSLEPEDFAVYYCQQRSNWPITFGQGTRLEIK
1.1e-10	8e-10	2.8																	H4H10432P2 (antibody, human IgG4, V domains shown) VH: EVQLVESGGGLVQPGRSLTLSCAVSGFTFDDHAMHWVRQAPGKGLEWVSGISWNSVSIGYADSVKGRFTISRDNAKTSLYLQMNSLRVDDTALYYCVQDLNDILTGYPLFDFWGQGTLVTVSS VL: not shown

From US20220056119A1 (Regeneron, published 2022)
